Measurements: publication PMC3795040

Target: HA70 of BoNT/A (full-length, residues M1–N626) (Clostridium botulinum strain 62A (BoNT/A1-producing))
Assay: ITC; […] ([…]) […] (400 µM) […]; 23°C; 50 mM Tris pH 7.6, 100 mM NaCl; […]

## synthetic nLoop peptide of NTNHA (from UniProt Q45914 116-148)
  Kd: 340 nM
  stoichiometry N (nLoop per HA70 trimer): 1
